Measurements as given in patent US20060234906A1, “Structure of a complex of retinoblastoma protein bound to e2f, and uses thereof” (priority 2002, published 2006).

Assays:
RbABC = target: T1, RbABC (Homo sapiens, UniProt P06400); experiment: Isothermal titration calorimetry of E2F constructs binding to RbABC; conditions: ITC
T1 construct: His6-RbABC (RESIDUES 380-929); made in house; host or cells: E. coli
T1 sequence (P06400 380-928 limits assumed): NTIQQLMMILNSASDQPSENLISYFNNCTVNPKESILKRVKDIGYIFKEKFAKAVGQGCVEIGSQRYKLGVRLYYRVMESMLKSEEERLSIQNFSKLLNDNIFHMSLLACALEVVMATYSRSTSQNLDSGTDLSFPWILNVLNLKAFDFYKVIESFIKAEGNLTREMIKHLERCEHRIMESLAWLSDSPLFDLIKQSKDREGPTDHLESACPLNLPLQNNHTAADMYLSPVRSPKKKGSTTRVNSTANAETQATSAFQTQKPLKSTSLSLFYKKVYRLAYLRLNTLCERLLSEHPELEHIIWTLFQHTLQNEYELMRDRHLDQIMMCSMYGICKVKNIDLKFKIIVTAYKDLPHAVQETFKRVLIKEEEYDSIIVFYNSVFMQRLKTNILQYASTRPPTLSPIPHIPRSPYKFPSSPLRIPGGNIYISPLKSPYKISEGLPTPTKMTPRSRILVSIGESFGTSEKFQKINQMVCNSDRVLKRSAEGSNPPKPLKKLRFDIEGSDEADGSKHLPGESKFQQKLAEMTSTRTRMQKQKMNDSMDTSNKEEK
Experimental: (B) Summary of dissociation constants obtained by ITC measurements. The quoted errors are those produced by fitting the data to a two-state model. For the interaction of E2F(243-437) to RbAB and RbABC the affinities are too high to measure reliably and we have therefore quoted the upper limits of the dissociation constants.
(§1) Binding of the various E2F constructs to RbAB and RbABC was measured by isothermal titration calorimetry using a MicroCal Omega VP-ITC machine (MicroCal Inc., Northampton, USA). The E2F constructs at a concentration between 100-150 μM were titrated into 12-15 μM Rb at a temperature of 22° C. Proteins were dialysed against 50 mM Tris pH 7.6, 100 mM NaCl and 1 mM TCEP. After subtraction of the dilution heats, calorimetric data was analysed using the evaluation software MicroCal Origin v5.0 (MicroCal Software Inc.). For all of the titrations, the stoichiometry of ligand binding to Rb was very close to 1.0. For E2F(243-437) binding to Rb, the binding affinity and the heat change associated with binding were such that we could only establish that binding was tighter than 10 nM.

RbAB and RbABC = target: T2, RbAB and RbABC (Homo sapiens, UniProt P06400); experiment: Competition experiment (Ni column, SDS-PAGE): partition of E2F(243-437) between RbAB and RbABC; format: binding; conditions: His6-RbABC against non-tagged RbAB, proteins mixed at 40 μM
T2 construct: non-tagged RbAB (residues 372-787); His6-RbABC (RESIDUES 380-929); made in house; host or cells: E. coli
T2 sequence (P06400 372-787 limits assumed): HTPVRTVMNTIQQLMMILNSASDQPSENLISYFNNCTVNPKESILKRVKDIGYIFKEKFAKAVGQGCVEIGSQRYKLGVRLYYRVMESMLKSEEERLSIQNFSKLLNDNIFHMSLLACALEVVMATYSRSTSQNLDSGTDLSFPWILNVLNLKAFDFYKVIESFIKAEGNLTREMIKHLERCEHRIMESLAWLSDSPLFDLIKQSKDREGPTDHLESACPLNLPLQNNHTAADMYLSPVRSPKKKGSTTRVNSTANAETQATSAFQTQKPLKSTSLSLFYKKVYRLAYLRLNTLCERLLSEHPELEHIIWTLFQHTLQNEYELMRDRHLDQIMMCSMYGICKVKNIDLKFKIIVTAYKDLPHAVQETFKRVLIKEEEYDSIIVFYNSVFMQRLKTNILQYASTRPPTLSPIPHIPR
T2 sequence (P06400 380-928 limits assumed): T1 sequence (P06400 380-928 limits assumed)
Experimental: as §1
The proteins used in these experiments were His6-RbABC (RESIDUES 380-929); MW 66.07 kDa, non-tagged RbAB (residues 372-787); MW 48.67 KDa, are His6-RbAB (residues 376-792); MW 49.86 KDa, E2F(243-437); MW 21.45 KDa HPV E7 (residues 17-98); MW 9.38 KDa and E2F(409-426); MW 2.12 KDa. Protein concentrations were carefully determined by u.v. spectroscopy and confirmed by ITC titrations. The small acidic E2F proteins stain much weaker than Rb with Coomassie on SDS-PAGE. For all gel lanes contained a final RbAB concentration of ca. 7 μM. […]

B1: E2F(243-437): Recombinant human E2F1(243-437) expressed in E. coli (protein, UniProt Q01094 243-437, looked up, fragment)
chain: LAYVTCQDLRSIADPAEQMVMVIKAPPETQLQAVDSSENFQISLKSKQGPIDVFLCPEETVGGISPGKTPSQEVTSEEENRATDSATIVSPPPSSPPSSLTTDPSQSLLSLEQEPLLSRMGSLRAPVDEDRLSPLVAADSLLEHVREDFSGLLPEEFISLSPPHEALDYHFGLEEGEGIRDLFDCDFGDLTPLDF
With B1 the “binds stronger than either of the two shorter E2F fragments” value (RbABC) was “at least 16 fold” and the “partitioning between the two pRb species” value (RbAB and RbABC) was “approximately equal partitioning”.
